{
  "source": "IntAct's records for PubMed 31515488",
  "parents": {"B1": {"name": "Double-strand-break repair protein rad21 homolog (Homo sapiens), O60216 (parent)", "chain": "MFYAHFVLSKRGPLAKIWLAAHWDKKLTKAHVFECNLESSVESIISPKVKMALRTSGHLLLGVVRIYHRKAKYLLADCNEAFIKIKMAFRPGVVDLPEENREAAYNAITLPEEFHDFDQPLPDLDDIDVAQQFSLNQSRVEEITMREEVGNISILQENDFGDFGMDDREIMREGSAFEDDDMLVSTTTSNLLLESEQSTSNLNEKINHLEYEDQYKDDNFGEGNDGGILDDKLISNNDGGIFDDPPALSEAGVMLPEQPAHDDMDEDDNVSMGGPDSPDSVDPVEPMPTMTDQTTLVPNEEEAFALEPIDITVKETKAKRKRKLIVDSVKELDSKTIRAQLSDYSDIVTTLDLAPPTKKLMMWKETGGVEKLFSLPAQPLWNNRLLKLFTRCLTPLVPEDLRKRRKGGEADNLDEFLKEFENPEVPREDQQQQHQQRDVIDEPIIEEPSRLQESVMEASRTNIDESAMPPPPPQGVKRKAGQIDPEPVMPPQQVEQMEIPPVELPPEEPPNICQLIPELELLPEKEKEKEKEKEDDEEEEDEDASGGDQDQEERRWNKRTQQMLHGLQRALAKTGAESISLLELCRNTNRKQAAAKFYSFLVLKKQQAIELTQEEPYSDIIATPGPRFHII"}, "B2": {"name": "Leucine-rich repeat and calponin homology domain-containing protein 1 (Homo sapiens), Q9Y2L9 (parent)", "chain": "MATPGSEPQPFVPALSVATLHPLHHPHHHHHHHQHHGGTGAPGGAGGGGGGSGGFNLPLNRGLERALEEAANSGGLNLSARKLKEFPRTAAPGHDLSDTVQADLSKNRLVEVPMELCHFVSLEILNLYHNCIRVIPEAIVNLQMLTYLNLSRNQLSALPACLCGLPLKVLIASNNKLGSLPEEIGQLKQLMELDVSCNEITALPQQIGQLKSLRELNVRRNYLKVLPQELVDLSLVKFDFSCNKVLVIPICFREMKQLQVLLLENNPLQSPPAQICTKGKVHIFKYLSIQACQIKTADSLYLHTMERPHLHQHVEDGKKDSDSGVGSDNGDKRLSATEPSDEDTVSLNVPMSNIMEEEQIIKEDSCHRLSPVKGEFHQEFQPEPSLLGDSTNSGEERDQFTDRADGLHSEFMNYKARAEDCEELLRIEEDVHWQTEGIISSSKDQDMDIAMIEQLREAVDLLQDPNGLSTDITERSVLNLYPMGSAEALELQDSALNGQIQLETSPVCEVQSDLTLQSNGSQYSPNEIRENSPAVSPTTNSTAPFGLKPRSVFLRPQRNLESIDPQFTIRRKMEQMREEKELVEQLRESIEMRLKVSLHEDLGAALMDGVVLCHLVNHIRPRSVASIHVPSPAVPKLSMAKCRRNVENFLEACRKLGVPEADLCSPCDILQLDFRHIRKTVDTLLALGEKAPPPTSALRSRDLIGFCLVHILFIVLVYITYHWNALSA"}, "B3": {"name": "X antigen family member 3 (Homo sapiens), Q8WTP9 (parent)", "chain": "MIWRGRSTYRPRPRRSVPPPELIGPMLEPGDEEPQQEEPPTESRDPAPGQEREEDQGAAETQVPDLEADLQELSQSKTGGECGNGPDDQGKILPKSEQFKMPEGGDRQPQV", "partner": "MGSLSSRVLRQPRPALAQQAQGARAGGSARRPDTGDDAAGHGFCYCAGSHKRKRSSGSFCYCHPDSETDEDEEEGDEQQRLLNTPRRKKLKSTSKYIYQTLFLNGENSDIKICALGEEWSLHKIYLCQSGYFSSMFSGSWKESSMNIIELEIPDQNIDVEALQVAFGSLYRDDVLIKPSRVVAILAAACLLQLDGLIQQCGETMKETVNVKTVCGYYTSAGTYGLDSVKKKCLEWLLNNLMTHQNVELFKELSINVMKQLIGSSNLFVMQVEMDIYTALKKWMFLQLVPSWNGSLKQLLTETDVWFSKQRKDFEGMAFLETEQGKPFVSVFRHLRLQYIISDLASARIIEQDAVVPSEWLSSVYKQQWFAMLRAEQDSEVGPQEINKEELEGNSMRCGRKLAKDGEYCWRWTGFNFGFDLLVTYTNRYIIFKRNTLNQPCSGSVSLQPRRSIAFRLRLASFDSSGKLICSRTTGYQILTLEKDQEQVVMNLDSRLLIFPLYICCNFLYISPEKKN"}, "B4": {"name": "Retinoic acid receptor RXR-gamma (Homo sapiens), P48443 (parent)", "chain": "MYGNYSHFMKFPAGYGGSPGHTGSTSMSPSAALSTGKPMDSHPSYTDTPVSAPRTLSAVGTPLNALGSPYRVITSAMGPPSGALAAPPGINLVAPPSSQLNVVNSVSSSEDIKPLPGLPGIGNMNYPSTSPGSLVKHICAICGDRSSGKHYGVYSCEGCKGFFKRTIRKDLIYTCRDNKDCLIDKRQRNRCQYCRYQKCLVMGMKREAVQEERQRSRERAESEAECATSGHEDMPVERILEAELAVEPKTESYGDMNMENSTNDPVTNICHAADKQLFTLVEWAKRIPHFSDLTLEDQVILLRAGWNELLIASFSHRSVSVQDGILLATGLHVHRSSAHSAGVGSIFDRVLTELVSKMKDMQMDKSELGCLRAIVLFNPDAKGLSNPSEVETLREKVYATLEAYTKQKYPEQPGRFAKLLLRLPALRSIGLKCLEHLFFFKLIGDTPIDTFLMEMLETPLQIT", "partner": "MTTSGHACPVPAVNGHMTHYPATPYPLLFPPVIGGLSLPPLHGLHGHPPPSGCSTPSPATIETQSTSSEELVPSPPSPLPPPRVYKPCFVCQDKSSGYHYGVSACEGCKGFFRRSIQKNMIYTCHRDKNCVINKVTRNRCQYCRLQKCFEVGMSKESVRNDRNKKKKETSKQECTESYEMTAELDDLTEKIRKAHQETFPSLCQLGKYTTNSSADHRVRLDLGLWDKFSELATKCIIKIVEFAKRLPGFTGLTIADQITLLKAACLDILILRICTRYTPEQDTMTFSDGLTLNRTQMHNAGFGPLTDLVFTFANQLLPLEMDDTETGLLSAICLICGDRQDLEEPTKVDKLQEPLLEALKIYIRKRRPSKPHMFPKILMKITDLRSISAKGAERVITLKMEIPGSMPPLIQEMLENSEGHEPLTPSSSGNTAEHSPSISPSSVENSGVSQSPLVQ"}, "B5": {"name": "Prolyl 4-hydroxylase subunit alpha-3 (Homo sapiens), Q7Z4N8 (parent)", "chain": "MGPGARLAALLAVLALGTGDPERAAARGDTFSALTSVARALAPERRLLGLLRRYLRGEEARLRDLTRFYDKVLSLHEDSTTPVANPLLAFTLIKRLQSDWRNVVHSLEASENIRALKDGYEKVEQDLPAFEDLEGAARALMRLQDVYMLNVKGLARGVFQRVTGSAITDLYSPKRLFSLTGDDCFQVGKVAYDMGDYYHAIPWLEEAVSLFRGSYGEWKTEDEASLEDALDHLAFAYFRAGNVSCALSLSREFLLYSPDNKRMARNVLKYERLLAESPNHVVAEAVIQRPNIPHLQTRDTYEGLCQTLGSQPTLYQIPSLYCSYETNSNAYLLLQPIRKEVIHLEPYIALYHDFVSDSEAQKIRELAEPWLQRSVVASGEKQLQVEYRISKSAWLKDTVDPKLVTLNHRIAALTGLDVRPPYAEYLQVVNYGIGGHYEPHFDHATSPSSPLYRMKSGNRVATFMIYLSSVEAGGATAFIYANLSVPVVRNAALFWWNLHRSGEGDSDTLHAGCPVLVGDKWVANKWIHEYGQEFRRPCSSSPED", "partner": "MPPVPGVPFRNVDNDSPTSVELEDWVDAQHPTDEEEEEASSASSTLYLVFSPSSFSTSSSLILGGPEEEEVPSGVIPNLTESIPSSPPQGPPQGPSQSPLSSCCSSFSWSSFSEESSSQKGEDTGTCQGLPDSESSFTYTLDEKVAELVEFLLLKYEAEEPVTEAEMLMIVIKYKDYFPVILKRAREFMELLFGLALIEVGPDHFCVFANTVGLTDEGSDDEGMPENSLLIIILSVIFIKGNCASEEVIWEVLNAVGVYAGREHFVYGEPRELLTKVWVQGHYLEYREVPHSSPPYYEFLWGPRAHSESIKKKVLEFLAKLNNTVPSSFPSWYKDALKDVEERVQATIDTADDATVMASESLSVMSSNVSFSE"}, "B6": {"name": "PHD finger protein 1 (Homo sapiens), O43189 (parent)", "chain": "MAQPPRLSRSGASSLWDPASPAPTSGPRPRLWEGQDVLARWTDGLLYLGTIKKVDSAREVCLVQFEDDSQFLVLWKDISPAALPGEELLCCVCRSETVVPGNRLVSCEKCRHAYHQDCHVPRAPAPGEGEGTSWVCRQCVFAIATKRGGALKKGPYARAMLGMKLSLPYGLKGLDWDAGHLSNRQQSYCYCGGPGEWNLKMLQCRSCLQWFHEACTQCLSKPLLYGDRFYEFECCVCRGGPEKVRRLQLRWVDVAHLVLYHLSVCCKKKYFDFDREILPFTSENWDSLLLGELSDTPKGERSSRLLSALNSHKDRFISGREIKKRKCLFGLHARMPPPVEPPTGDGALTSFPSGQGPGGGVSRPLGKRRRPEPEPLRRRQKGKVEELGPPSAVRNQPEPQEQRERAHLQRALQASVSPPSPSPNQSYQGSSGYNFRPTDARCLPSSPIRMFASFHPSASTAGTSGDSGPPDRSPLELHIGFPTDIPKSAPHSMTASSSSVSSPSPGLPRRSAPPSPLCRSLSPGTGGGVRGGVGYLSRGDPVRVLARRVRPDGSVQYLVEWGGGGIF", "partner": "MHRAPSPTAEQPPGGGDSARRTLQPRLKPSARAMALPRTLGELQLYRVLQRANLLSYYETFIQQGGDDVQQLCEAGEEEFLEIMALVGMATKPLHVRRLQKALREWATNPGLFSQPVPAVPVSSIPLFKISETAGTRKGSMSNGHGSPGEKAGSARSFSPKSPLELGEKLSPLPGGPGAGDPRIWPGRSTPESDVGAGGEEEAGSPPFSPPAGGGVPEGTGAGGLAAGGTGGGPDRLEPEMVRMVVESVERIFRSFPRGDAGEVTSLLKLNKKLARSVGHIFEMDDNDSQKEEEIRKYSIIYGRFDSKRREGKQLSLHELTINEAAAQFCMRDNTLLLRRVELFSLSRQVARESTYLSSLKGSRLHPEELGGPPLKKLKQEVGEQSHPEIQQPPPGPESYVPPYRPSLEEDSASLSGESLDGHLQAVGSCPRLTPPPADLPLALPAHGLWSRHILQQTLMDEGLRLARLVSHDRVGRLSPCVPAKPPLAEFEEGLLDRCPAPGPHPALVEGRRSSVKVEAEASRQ"}},
  "data": [
    {"variants_of": "B1", "details": "with fhl3_human FHL3, Q13643", "values": [
      {"variant": "I45V", "effect of a mutation on the interaction": "with no effect"},
      {"variant": "D95H", "effect of a mutation on the interaction": "with no effect"},
      {"variant": "D414E", "effect of a mutation on the interaction": "with no effect"},
      {"variant": "M362L", "effect of a mutation on the interaction": "with no effect"},
      {"variant": "P426S", "effect of a mutation on the interaction": "with no effect"},
      {"variant": "P443L", "effect of a mutation on the interaction": "with no effect"}
    ]},
    {"variants_of": "B2", "details": "with dock8_human DOCK8, Q8NF50", "values": [
      {"variant": "A486S", "effect of a mutation on the interaction": "with no effect"}
    ]},
    {"variants_of": "B3", "details": "with gmcl1_human GMCL1, Q96IK5", "values": [
      {"variant": "I92F", "effect of a mutation on the interaction": "with no effect"}
    ]},
    {"variants_of": "B4", "details": "with rarb_human RARB", "values": [
      {"variant": "A86V", "effect of a mutation on the interaction": "with no effect"}
    ]},
    {"variants_of": "B5", "details": "with magc2_human MAGEC2, Q9UBF1", "values": [
      {"variant": "S378L", "effect of a mutation on the interaction": "disrupting interaction strength"}
    ]},
    {"variants_of": "B6", "details": "with nab2_human NAB2, Q15742", "values": [
      {"variant": "S14L", "effect of a mutation on the interaction": "with no effect"}
    ]}
  ]
}
